Measured values reported in the nanobody polyreactivity screen of Harvey et al. (2022).

Assay: yeast display, Sf9 membrane polyspecificity reagent, FACS + sequencing; frameworks hold sequencing errors
In short: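 Galactose induction of a Saccharomyces cerevisiae BJ5465 synthetic nanobody display library ran 36–48 hours. The cells were then stained for 1 hour at 4 °C with 10% biotinylated, detergent-solubilized Sf9 membrane reagent, pulled down on streptavidin microbeads and FACS-sorted into low and high (top ~1%) gates on expression and reagent-binding fluorescence. Labels for polyreactivity follow the gate of origin.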

Sequence | polyreactivity (PSR sort gate)
QVQLVESGGGLVQAGGSLRLSCAASGSIFYLYAMGWYRQAPGKERELVAAINFRGGSTYADSVKGRFTISRDNAKNTVYLQMNSLKPEDTAVYYCAAKADYRMNYWGQGTQVTVSS | high polyreactivity
QVQLVESGGGLVQAGGSLRLSCAASGSIFYSNAMVWYRQAPGKEREFVAAISTSAGRTYYADSVKGRFTISRDNAKNKVYLQLNSLNPEDTEVYYCAAGTNYGKLRIRFDYWGQGTQVTVSS | low polyreactivity
QVQLVESGGGLVQAGGSLRLSCAASGSTLNYYAMGWYRQAPGKERELVATIDKSGGSTRYADSVKGRFTISRDNAKNTVYLQMNSLKPEDTAVYYCAVDSPYQHDDYWGQGTQVTVSS | low polyreactivity
QVQLVESGGGLVLAGGSLSLTCAASGRTCWYYTMGWYRHAPGKARELVAAISSGGRTNYADSVKGRFTISRDNATNTVFLQMNSLKPEDTAVYYCATSRYYKYVERDYWGQGTQVTVSS | high polyreactivity
QVQLVESGGGLVQAGGSLRLSCAASGFTLGTYAMGWYRQAPGKERELVASITVTGGSTYYADSVKGRFTISRDNAKNTVYLQMNSLKPEDTAVYYCAASYQHFRSVNPYDSWGQGTQVTVSS | low polyreactivity
QVHLVESGGGLVQAGGSLRLSCAASASTFQSNAMGWYRQAPGKERELVATITQSGATTYYADSVKGRFTISRDYAKNTVYLQMNSLKPEDTAVYYCNVDTFQKRWFWLDLDGGYWGQGTQVTVSS | low polyreactivity
QVQLVESGGGLVQAGGSLRLSCAASGNIIDANAMGWYRQAPWKERELVAAITSSGGSTYYADSVKGRFTISRDNAKNTVYLQMNSLNPEDTAVYYCAKSHAIYYWWDESWGQGTQVTVSS | low polyreactivity
QVQLVESGVGLVQAGGSLRLSCAASGIIFGFYAMGWYRQAPGKERELVAAISVSGGSTNYADSVKGRFTISRDNAKNTVYLQMNSLKPEDTAVYYCAARVRDSLVYGGWDDYWGQGTQVTVSS | high polyreactivity
QVQLVESGGGLVQAGGSLRLSCAASGSIFPRYAMGWYRQAPGKERELVAAITSSAGSTYYADSVKGRFTISRDNAKNTVYLQMNSLKPEDTAVYYCAASGPWSYWYDYWGQGTQVTVSS | low polyreactivity
QVQLVESGGGLVQAGGSLRLSCAASGRTFRANTMGWYRQAPGKERELVAAISHSGGSTYYADSVKGRFTISRDNAKYTVYLQMISLKPEDTAVYYCATDGGSYSWASPRVDYWGQGTQVTVSS | low polyreactivity
QVQLVESGLGLVQEGGCLRVSCAASGSIFSHYAMGWDSQAPGKDREVVAAITGGGITYYADSVKGRFTISRDNAKNTVYLQMNSLIPEDTAVYYWATDSLIFTIFDYSGQGTQVTVSS | low polyreactivity
QVQLVESGGGLDQARGSLRLSCAASGSTLALYTMGWNRQATGKETELVAAISKNGGRTYYADSVKGRFTISRDNAKNTVYLQMYSLKPEDTAVYYCAAASGSYRGYDFWGQGSQVTVSS | high polyreactivity
QVQLVESGGGLVQAGGSLRLSCAASGSIFAVNTMGWYRQAPGKERELVAAISQRGSSTYYADSVKGRFTISRDNAKNTVYLQMNSLKPEDTAVYYCAKRFIYGRYNYWGQGTQVTVSS | high polyreactivity
QVQLVESGGGLVQAGGTLRLSCAASGSTFVRNAMGWYRQPPGKERELVAAISVDGSSTYYADSVKGRFTISRDNAKNTVYLQMNSLKPEDTAVYYCNADWDYRDFYDITYDYWGQGTQVTVSS | low polyreactivity
QVQLVESGGGLVQAGGSLRLSCAASGSTFRPYAMGWYRQAPGKERELVAAITFNGDTYADSVKGRFTISRDNAKNTVYLQMNSLKPEDTAVYYCNAESVSSPPYYDYWGQGTQVTVSS | high polyreactivity
QVQLVESGGGLVQAGGSLRLSCAASGITIWGYTMGWYRQAPGKERELVAAITSTGSTYYADSVKGRFTISRDNAKNHVYFQMNSQKPEDTSVYYCAATRGSSDYYYWGQGTQVTVSS | low polyreactivity

Sequence | polyreactivity (PSR sort gate)
QVQLVESGGGLVQAGGSLRLSCAASGRTLGQNVMGWYRQAPGKERELVAAISSNTAGNTYYADSVKGRFTISRDNAKNTVYLQMNSLKPEDTAVYYCAIVDSFEAILDYWGQGTQVTVSS | low polyreactivity
QVQLVESGGGLVPAGGSLLLSCAASGRTIYSYGMGWYRQAPGKERELVASISSSTGSTYYADSVKGRFTISRDNAKNTVYLQMNSLKPEDTAVYYCAKRYSWTRRYDYWGQGTQVTVSS | high polyreactivity
QVQLVESGGGLVQAGGSLRLSCASSGSTFSPNAMGWYRQAPGKERELVAAITYRGANTYYADSVKGRFTISRDNAKNTVYLQMNSLKPEDTAVYYCAAEYAYHHVGFGYWGQGTQVTVSS | low polyreactivity
QVQLVESGGGLVQAGGSLRLSCAASGRIFPGYTMGWYRQAPGKEREFVAAISYSGGSTYADSVKGRFTISRDNAKNTVYLQMNSLKPEDTAVNYCAVVLQHWLDMYYWGQGTQVTVSS | low polyreactivity
QEQLVESGAGLVQAGGSLRLSCAASGSIFTLYGMGRYRQAPGKERELVAAITWSGGRTYYADSVKGRFTISRDNAKNTVYLQMNSLKPEDTAVYYCAAYRYVSWYYPDDYWGQGTQVTVSS | high polyreactivity
QVQLVESGGGLVQAGGSLRLSCAASGSTFESYAMGWYRQAHGKERELVASISRSGGTTFYADSVKGRFTISRDNAKNTVYLQMNSLKPEDTAVYYCAAKRRRLGGDYWGQGTQVTVSS | high polyreactivity
QVQLVESGGGLVQAGGSLRLSCAASGFTFQYYAMGWYRQAPGKERELVAAISGTSGSTRYADSVKGRFTISRDNSKNTVYLQMNSLKPEDSAVYYCAAGSRGKVPVGLRYGYYYWGQGTQVTVSS | high polyreactivity
QVQLVESGGGLVQAGGSLRLICAASGGISLYYVKGWYRQAPGKERELVADISGDDSTNYADSVKGRFTISRDNAKNTVYLQMNSLKPEDTAVYYSAAVPGLFYLPYDYWGQGTQVTVSS | low polyreactivity
QVHLQESGGGLVQAVGSLRLSCAASGNISEYYDMGWYRQAPGKERKFVAGIDFGAITNYADSVKGRFTISRDNAKNTEYLQMRSLKPEDTAVYYCAAGVYDWYAYDYWGQGTQVTVSS | high polyreactivity
QVQHVESGGGLVQAGGSLRLSCAASGRTFAKYAMRWSRQAPGKERELVAAIRWSGGSTYYADSVKGRFTISRDNAKNTVYLQMNSLKPEDTAVYYCAARPALWGRYRGYDYWGQGTQVTVSS | high polyreactivity
QVKLVESGGGLVQAGGSLRLSCAASGFIFLRYGMGWYRQAPGKERELVASIDSTGGSTYADSVKGRFTISRDNAKNTVYLKMNSLKPVDTAVYFCAAAFYIVSERDYCGQGTQVTVSS | low polyreactivity
QVQLVESGGGLVQAGGSLRLSCAASGSTILAYALGWYRPAPGKERELVAAIRRGGTSTYSADSLKGRFTISRDKAKKTVYLQINSLQPEDTAVYYCNKAYITKRGVSGSNDYWGQGTQVTVSS | low polyreactivity
QVQLVDSGGGLVQAGGSLRLSCAASGAIFDIYGMGWYRQAPGKERELVASISGGAGSTNYADSVKGRFTISRDNAKNTVYLQMNSLKPEDTAVYYCAAEVYVPDYFQHKFDVEYEYWGHGTQVTVSS | low polyreactivity
QVQLVESGGGLVQAGGSLRLSCAASGFTFSWYTMGWYRQAPGKERELVAAITSGGSTNYADSVKGRFTISRDNAKNTVYLQMNSLKPEDTAVYYCNAYWSYSISGYDYWGQGTQVTVSS | low polyreactivity
QVQIVESGGGLVQAGGSLRLSCAASGSICTHNDMGWYRPSTWKERELVAAISTSGGRTYDADSVKGSFTISRDTAKNTVYLPMNSLKPEDTAVYYCNDRSVRSRYDYWGQGTQVTVSS | high polyreactivity
QVQLVESGGGLVQAGGSLSLSCAASGFIFYRYAMGWYRQAPGKERELVAAITSGGSTKYADSVKGRFTISRDNAKNTVYLQMNSLKPEYTAVYYCAADPFDWFSYYYWGQGTQVTVSS | low polyreactivity
